According to US20240209076A1 (KODIAK SCIENCES, published 2024):

B1: anti-IL-6 Fab, heavy chain Q99H (Fab, V domains shown)
VH: EVQLVESGGGLVQPGGSLRLSCAASGFTFSPFAMSWVRQAPGKGLEWVAKISPGGSWTYYSDTVTGRFTFSLDTSKSTAYLQMNSLRAEDTAVYYCARHLWGYYALDIWGQGTLVTVSS
VL: DIQLTQSPSSLSASVGDRVTITCSASISVSYMYWYQQKPGKAPKLLIYDMSNLASGVPSRFSGSGSGTDFTLTISSLQPEDFATYYCMQWSGYPYTFGQGTKVEIK
B2: anti-IL-6 Fab, heavy chain A105Q (Fab, V domains shown)
VH: EVQLVESGGGLVQPGGSLRLSCAASGFTFSPFAMSWVRQAPGKGLEWVAKISPGGSWTYYSDTVTGRFTFSLDTSKSTAYLQMNSLRAEDTAVYYCARQLWGYYQLDIWGQGTLVTVSS
VL: DIQLTQSPSSLSASVGDRVTITCSASISVSYMYWYQQKPGKAPKLLIYDMSNLASGVPSRFSGSGSGTDFTLTISSLQPEDFATYYCMQWSGYPYTFGQGTKVEIK
B3: anti-IL-6 Fab, heavy chain L100K (Fab, V domains shown)
VH: EVQLVESGGGLVQPGGSLRLSCAASGFTFSPFAMSWVRQAPGKGLEWVAKISPGGSWTYYSDTVTGRFTFSLDTSKSTAYLQMNSLRAEDTAVYYCARQKWGYYALDIWGQGTLVTVSS
VL: DIQLTQSPSSLSASVGDRVTITCSASISVSYMYWYQQKPGKAPKLLIYDMSNLASGVPSRFSGSGSGTDFTLTISSLQPEDFATYYCMQWSGYPYTFGQGTKVEIK
B4: anti-IL-6 Fab, heavy chain G102D (Fab, V domains shown)
VH: EVQLVESGGGLVQPGGSLRLSCAASGFTFSPFAMSWVRQAPGKGLEWVAKISPGGSWTYYSDTVTGRFTFSLDTSKSTAYLQMNSLRAEDTAVYYCARQLWDYYALDIWGQGTLVTVSS
VL: DIQLTQSPSSLSASVGDRVTITCSASISVSYMYWYQQKPGKAPKLLIYDMSNLASGVPSRFSGSGSGTDFTLTISSLQPEDFATYYCMQWSGYPYTFGQGTKVEIK
B5: anti-IL-6 Fab, heavy chain Y103E (Fab, V domains shown)
VH: EVQLVESGGGLVQPGGSLRLSCAASGFTFSPFAMSWVRQAPGKGLEWVAKISPGGSWTYYSDTVTGRFTFSLDTSKSTAYLQMNSLRAEDTAVYYCARQLWGEYALDIWGQGTLVTVSS
VL: DIQLTQSPSSLSASVGDRVTITCSASISVSYMYWYQQKPGKAPKLLIYDMSNLASGVPSRFSGSGSGTDFTLTISSLQPEDFATYYCMQWSGYPYTFGQGTKVEIK
B6: anti-IL-6 Fab, heavy chain D107E (Fab, V domains shown)
VH: EVQLVESGGGLVQPGGSLRLSCAASGFTFSPFAMSWVRQAPGKGLEWVAKISPGGSWTYYSDTVTGRFTFSLDTSKSTAYLQMNSLRAEDTAVYYCARQLWGYYALEIWGQGTLVTVSS
VL: DIQLTQSPSSLSASVGDRVTITCSASISVSYMYWYQQKPGKAPKLLIYDMSNLASGVPSRFSGSGSGTDFTLTISSLQPEDFATYYCMQWSGYPYTFGQGTKVEIK
B7: anti-IL-6 Fab, heavy chain I108E (Fab, V domains shown)
VH: EVQLVESGGGLVQPGGSLRLSCAASGFTFSPFAMSWVRQAPGKGLEWVAKISPGGSWTYYSDTVTGRFTFSLDTSKSTAYLQMNSLRAEDTAVYYCARQLWGYYALDEWGQGTLVTVSS
VL: DIQLTQSPSSLSASVGDRVTITCSASISVSYMYWYQQKPGKAPKLLIYDMSNLASGVPSRFSGSGSGTDFTLTISSLQPEDFATYYCMQWSGYPYTFGQGTKVEIK
B8: anti-IL-6 antibody, light chain A54G (heavy chain WT) (antibody, V domains shown)
VH: EVQLVESGGGLVQPGGSLRLSCAASGFTFSPFAMSWVRQAPGKGLEWVAKISPGGSWTYYSDTVTGRFTFSLDTSKSTAYLQMNSLRAEDTAVYYCARQLWGYYALDIWGQGTLVTVSS
VL: DIQLTQSPSSLSASVGDRVTITCSASISVSYMYWYQQKPGKAPKLLIYDMSNLGSGVPSRFSGSGSGTDFTLTISSLQPEDFATYYCMQWSGYPYTFGQGTKVEIK
notes: See note of m2; also called WT / A54G
B9: anti-IL-6 antibody, light chain A54L (heavy chain WT) (antibody, V domains shown)
VH: EVQLVESGGGLVQPGGSLRLSCAASGFTFSPFAMSWVRQAPGKGLEWVAKISPGGSWTYYSDTVTGRFTFSLDTSKSTAYLQMNSLRAEDTAVYYCARQLWGYYALDIWGQGTLVTVSS
VL: DIQLTQSPSSLSASVGDRVTITCSASISVSYMYWYQQKPGKAPKLLIYDMSNLLSGVPSRFSGSGSGTDFTLTISSLQPEDFATYYCMQWSGYPYTFGQGTKVEIK
notes: See note of m2; also called WT / A54L
B10: anti-IL-6 antibody, light chain A54Y (heavy chain WT) (antibody, V domains shown)
VH: EVQLVESGGGLVQPGGSLRLSCAASGFTFSPFAMSWVRQAPGKGLEWVAKISPGGSWTYYSDTVTGRFTFSLDTSKSTAYLQMNSLRAEDTAVYYCARQLWGYYALDIWGQGTLVTVSS
VL: DIQLTQSPSSLSASVGDRVTITCSASISVSYMYWYQQKPGKAPKLLIYDMSNLYSGVPSRFSGSGSGTDFTLTISSLQPEDFATYYCMQWSGYPYTFGQGTKVEIK
notes: See note of m2; also called WT / A54Y
B11: anti-IL-6 antibody, light chain I47V (heavy chain WT) (antibody, V domains shown)
VH: EVQLVESGGGLVQPGGSLRLSCAASGFTFSPFAMSWVRQAPGKGLEWVAKISPGGSWTYYSDTVTGRFTFSLDTSKSTAYLQMNSLRAEDTAVYYCARQLWGYYALDIWGQGTLVTVSS
VL: DIQLTQSPSSLSASVGDRVTITCSASISVSYMYWYQQKPGKAPKLLVYDMSNLASGVPSRFSGSGSGTDFTLTISSLQPEDFATYYCMQWSGYPYTFGQGTKVEIK
notes: See note of m2; also called WT / 147V
B12: anti-IL-6 antibody, light chain L46V (heavy chain WT) (antibody, V domains shown)
VH: EVQLVESGGGLVQPGGSLRLSCAASGFTFSPFAMSWVRQAPGKGLEWVAKISPGGSWTYYSDTVTGRFTFSLDTSKSTAYLQMNSLRAEDTAVYYCARQLWGYYALDIWGQGTLVTVSS
VL: DIQLTQSPSSLSASVGDRVTITCSASISVSYMYWYQQKPGKAPKLVIYDMSNLASGVPSRFSGSGSGTDFTLTISSLQPEDFATYYCMQWSGYPYTFGQGTKVEIK
notes: See note of m2; also called WT / L46V
B13: anti-IL-6 antibody, light chain L53H (heavy chain WT) (antibody, V domains shown)
VH: EVQLVESGGGLVQPGGSLRLSCAASGFTFSPFAMSWVRQAPGKGLEWVAKISPGGSWTYYSDTVTGRFTFSLDTSKSTAYLQMNSLRAEDTAVYYCARQLWGYYALDIWGQGTLVTVSS
VL: DIQLTQSPSSLSASVGDRVTITCSASISVSYMYWYQQKPGKAPKLLIYDMSNHASGVPSRFSGSGSGTDFTLTISSLQPEDFATYYCMQWSGYPYTFGQGTKVEIK
notes: See note of m2; also called WT / L53H
B14: anti-IL-6 antibody, light chain L53R (heavy chain WT) (antibody, V domains shown)
VH: EVQLVESGGGLVQPGGSLRLSCAASGFTFSPFAMSWVRQAPGKGLEWVAKISPGGSWTYYSDTVTGRFTFSLDTSKSTAYLQMNSLRAEDTAVYYCARQLWGYYALDIWGQGTLVTVSS
VL: DIQLTQSPSSLSASVGDRVTITCSASISVSYMYWYQQKPGKAPKLLIYDMSNRASGVPSRFSGSGSGTDFTLTISSLQPEDFATYYCMQWSGYPYTFGQGTKVEIK
notes: See note of m2; also called WT / L53R
B15: anti-IL-6 antibody, light chain L53W (heavy chain WT) (antibody, V domains shown)
VH: EVQLVESGGGLVQPGGSLRLSCAASGFTFSPFAMSWVRQAPGKGLEWVAKISPGGSWTYYSDTVTGRFTFSLDTSKSTAYLQMNSLRAEDTAVYYCARQLWGYYALDIWGQGTLVTVSS
VL: DIQLTQSPSSLSASVGDRVTITCSASISVSYMYWYQQKPGKAPKLLIYDMSNWASGVPSRFSGSGSGTDFTLTISSLQPEDFATYYCMQWSGYPYTFGQGTKVEIK
notes: See note of m2; also called WT / L53W
B16: anti-IL-6 antibody, light chain N52S (heavy chain WT) (antibody, V domains shown)
VH: EVQLVESGGGLVQPGGSLRLSCAASGFTFSPFAMSWVRQAPGKGLEWVAKISPGGSWTYYSDTVTGRFTFSLDTSKSTAYLQMNSLRAEDTAVYYCARQLWGYYALDIWGQGTLVTVSS
VL: DIQLTQSPSSLSASVGDRVTITCSASISVSYMYWYQQKPGKAPKLLIYDMSSLASGVPSRFSGSGSGTDFTLTISSLQPEDFATYYCMQWSGYPYTFGQGTKVEIK
notes: See note of m2; also called WT / N52S
B17: anti-IL-6 antibody, light chain Q89A (heavy chain WT) (antibody, V domains shown)
VH: EVQLVESGGGLVQPGGSLRLSCAASGFTFSPFAMSWVRQAPGKGLEWVAKISPGGSWTYYSDTVTGRFTFSLDTSKSTAYLQMNSLRAEDTAVYYCARQLWGYYALDIWGQGTLVTVSS
VL: DIQLTQSPSSLSASVGDRVTITCSASISVSYMYWYQQKPGKAPKLLIYDMSNLASGVPSRFSGSGSGTDFTLTISSLQPEDFATYYCMAWSGYPYTFGQGTKVEIK
notes: See note of m2; also called WT / Q89A
B18: anti-IL-6 antibody, light chain Q89S (heavy chain WT) (antibody, V domains shown)
VH: EVQLVESGGGLVQPGGSLRLSCAASGFTFSPFAMSWVRQAPGKGLEWVAKISPGGSWTYYSDTVTGRFTFSLDTSKSTAYLQMNSLRAEDTAVYYCARQLWGYYALDIWGQGTLVTVSS
VL: DIQLTQSPSSLSASVGDRVTITCSASISVSYMYWYQQKPGKAPKLLIYDMSNLASGVPSRFSGSGSGTDFTLTISSLQPEDFATYYCMSWSGYPYTFGQGTKVEIK
notes: See note of m2; also called WT / Q89S
B19: anti-IL-6 antibody, light chain S30A (heavy chain WT) (antibody, V domains shown)
VH: EVQLVESGGGLVQPGGSLRLSCAASGFTFSPFAMSWVRQAPGKGLEWVAKISPGGSWTYYSDTVTGRFTFSLDTSKSTAYLQMNSLRAEDTAVYYCARQLWGYYALDIWGQGTLVTVSS
VL: DIQLTQSPSSLSASVGDRVTITCSASISVAYMYWYQQKPGKAPKLLIYDMSNLASGVPSRFSGSGSGTDFTLTISSLQPEDFATYYCMQWSGYPYTFGQGTKVEIK
notes: See note of m2; also called WT / S30A
B20: anti-IL-6 antibody, light chain S30G (heavy chain WT) (antibody, V domains shown)
VH: EVQLVESGGGLVQPGGSLRLSCAASGFTFSPFAMSWVRQAPGKGLEWVAKISPGGSWTYYSDTVTGRFTFSLDTSKSTAYLQMNSLRAEDTAVYYCARQLWGYYALDIWGQGTLVTVSS
VL: DIQLTQSPSSLSASVGDRVTITCSASISVGYMYWYQQKPGKAPKLLIYDMSNLASGVPSRFSGSGSGTDFTLTISSLQPEDFATYYCMQWSGYPYTFGQGTKVEIK
notes: See note of m2; also called WT / S30G

These binders were tested against recombinant human IL-6 (human, UniProt P05231 30-212) (assay: SPR, IL-6 on CM5 chip, Fab lysate, 25 C).
Target sequence in this assay (P05231 30-212 limits assumed): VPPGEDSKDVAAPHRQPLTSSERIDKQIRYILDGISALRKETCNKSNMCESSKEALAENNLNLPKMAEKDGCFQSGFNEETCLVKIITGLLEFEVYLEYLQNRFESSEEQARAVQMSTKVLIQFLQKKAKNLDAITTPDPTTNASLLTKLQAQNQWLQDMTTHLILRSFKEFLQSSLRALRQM
With B1 the koff was 0.00441 s⁻¹.
For B2, the koff was 0.00401 s⁻¹.
With B3 the koff was 0.00287 s⁻¹.
Binder B4 has a koff of 0.00389 s⁻¹.
B5 gave a koff of 0.00512 s⁻¹.
B6 was tested, and the koff was 0.00438 s⁻¹.
For B7, the koff was 0.00308 s⁻¹.

These binders were tested against T1, recombinant human IL-6 (human, UniProt P05231 30-212) (assay: SPR Biacore, supernatant Ab on Protein A chip, IL-6 analyte, 25 C).
T1 construct: Bought protein
Experimental: Antibodies were captured on a Protein A chip (GE) by injecting 1:20 dilution of cell supernatant at 10 μL/min for 60 seconds. […] The sensor chip was regenerated by a 60 seconds injection of 10 mM Glycine pH 1.7 at flow rate of 50 μL/min. […] For this setup, 1 μg/mL of purified antibody was injected over a Protein A chip at 10 μL/min for 25-28 seconds. Data analysis for supernatant and purified samples were performed using BIAevaluation software (GE). All sensorgrams were double reference subtracted and fit using a 1:1 Langmuir binding model.
T1 sequence (P05231 30-212 limits assumed): as above
With B8 the Kd was 0.416 nM, the koff was 0.000198 s⁻¹ and the kon was 475000 M⁻¹ s⁻¹.
With B9 the Kd was 0.499 nM, the koff was 0.00021 s⁻¹ and the kon was 420000 M⁻¹ s⁻¹.
In the case of B10, the Kd is reported as 0.168 nM, the koff is reported as 0.000109 s⁻¹ and the kon is reported as 652000 M⁻¹ s⁻¹.
For B11, the Kd was 0.414 nM, the koff was 0.000195 s⁻¹ and the kon was 471000 M⁻¹ s⁻¹.
Work on B12 yielded a Kd of 0.442 nM, a koff of 0.000203 s⁻¹ and a kon of 460000 M⁻¹ s⁻¹.
In the case of B13, the Kd is reported as 0.401 nM, the koff is reported as 0.000218 s⁻¹ and the kon is reported as 544000 M⁻¹ s⁻¹.
Binder B14 has a Kd of 0.446 nM, a koff of 0.000185 s⁻¹ and a kon of 416000 M⁻¹ s⁻¹.
B15 was tested, and the Kd was 0.00518 nM, the koff was 6.14e-06 s⁻¹ and the kon was 1.19e+06 M⁻¹ s⁻¹.
For B16, the Kd was 0.353 nM, the koff was 0.000152 s⁻¹ and the kon was 430000 M⁻¹ s⁻¹.
In the case of B17, the Kd is reported as 0.419 nM, the koff is reported as 0.000227 s⁻¹ and the kon is reported as 543000 M⁻¹ s⁻¹.
B18 was tested, and the Kd was 0.752 nM, the koff was 0.000272 s⁻¹ and the kon was 362000 M⁻¹ s⁻¹.
For B19, the Kd was 0.639 nM, the koff was 0.000163 s⁻¹ and the kon was 255000 M⁻¹ s⁻¹.
B20 gave a Kd of 0.316 nM, a koff of 0.000173 s⁻¹ and a kon of 548000 M⁻¹ s⁻¹.
